According to the supplement of paper PMC9112550, “Optimization of the antimicrobial peptide Bac7 by deep mutational scanning” (BMC Biology, 2022):

System: Escherichia coli TOP10
Assay: shrunken log2 fold change of peptide-encoding DNA abundance (4.5 h post-induction vs induction); higher = less antimicrobial activity (less host growth inhibition)
Details: time post-induction: 4.5 h; library: site-saturation at positions 5, 18, 19, 20
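Further: peptides expressed intracellularly from a pBAD plasmid library in pooled LB shake-flask culture, induced with 0.3% L-arabinose, DNA abundance read by NGS, three biological replicates, DESeq2 with apeglm shrinkage.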

| Sequence | shrunken log2 fold change |
| --- | --- |
| RRIRIRPPRLPRPRPRPIDWPRP | -0.0878 |
| RRIRIRPPRLPRPRPRPIEAPRP | -0.01 |
| RRIRIRPPRLPRPRPRPIFAPRP | -0.0891 |
| RRIRIRPPRLPRPRPRPIGMPRP | -0.187 |
| RRIRIRPPRLPRPRPRPIHEPRP | -0.316 |
| RRIRIRPPRLPRPRPRPILMPRP | -0.23 |
| RRIRIRPPRLPRPRPRPIMRPRP | 0.139 |
| RRIRIRPPRLPRPRPRPIMWPRP | -0.0162 |
| RRIRIRPPRLPRPRPRPIMYPRP | -0.0494 |
| RRIRIRPPRLPRPRPRPIPNPRP | -0.0731 |
| RRIRIRPPRLPRPRPRPIQYPRP | -0.251 |
| RRIRIRPPRLPRPRPRPIREPRP | -0.0273 |
| RRIRIRPPRLPRPRPRPISIPRP | 0.0772 |
| RRIRIRPPRLPRPRPRPISMPRP | 0.0215 |
| RRIRIRPPRLPRPRPRPIVMPRP | -0.0726 |
| RRIRIRPPRLPRPRPRPIWAPRP | -0.234 |
| RRIRIRPPRLPRPRPRPIWEPRP | -0.0114 |
| RRIRIRPPRLPRPRPRPIWFPRP | -0.164 |
| RRIRIRPPRLPRPRPRPIWMPRP | -0.176 |
| RRIRIRPPRLPRPRPRPIYDPRP | -0.471 |
| RRIRIRPPRLPRPRPRPIYFPRP | -0.233 |
| RRIRIRPPRLPRPRPRPKAKPRP | 0.329 |
| RRIRIRPPRLPRPRPRPKCVPRP | -0.328 |
| RRIRIRPPRLPRPRPRPKEHPRP | -0.15 |
| RRIRIRPPRLPRPRPRPKFAPRP | -0.0494 |

| Sequence | shrunken log2 fold change |
| --- | --- |
| RRIRIRPPRLPRPRPRPKFCPRP | -0.639 |
| RRIRIRPPRLPRPRPRPKFNPRP | -1.09 |
| RRIRIRPPRLPRPRPRPKFVPRP | -0.0693 |
| RRIRIRPPRLPRPRPRPKKNPRP | -0.249 |
| RRIRIRPPRLPRPRPRPKKWPRP | -0.00764 |
| RRIRIRPPRLPRPRPRPKQKPRP | -0.12 |
| RRIRIRPPRLPRPRPRPKRAPRP | 0.283 |
| RRIRIRPPRLPRPRPRPKRSPRP | -0.335 |
| RRIRIRPPRLPRPRPRPKVWPRP | -0.0123 |
| RRIRIRPPRLPRPRPRPKWIPRP | -0.77 |
| RRIRIRPPRLPRPRPRPKYQPRP | -0.615 |
| RRIRIRPPRLPRPRPRPLASPRP | 0.0396 |
| RRIRIRPPRLPRPRPRPLDDPRP | 0.0241 |
| RRIRIRPPRLPRPRPRPLDSPRP | -0.0212 |
| RRIRIRPPRLPRPRPRPLECPRP | 0.0303 |
| RRIRIRPPRLPRPRPRPLEDPRP | -0.0413 |
| RRIRIRPPRLPRPRPRPLEGPRP | -0.0524 |
| RRIRIRPPRLPRPRPRPLEIPRP | -0.0939 |
| RRIRIRPPRLPRPRPRPLFIPRP | -0.525 |
| RRIRIRPPRLPRPRPRPLGCPRP | -0.0574 |
| RRIRIRPPRLPRPRPRPLHVPRP | -0.135 |
| RRIRIRPPRLPRPRPRPLISPRP | -0.127 |
| RRIRIRPPRLPRPRPRPLKEPRP | -0.568 |
| RRIRIRPPRLPRPRPRPLKFPRP | -0.373 |
| RRIRIRPPRLPRPRPRPLLIPRP | -0.485 |

| Sequence | shrunken log2 fold change |
| --- | --- |
| RRIRIRPPRLPRPRPRPLLYPRP | 0.47 |
| RRIRIRPPRLPRPRPRPLMEPRP | -0.278 |
| RRIRIRPPRLPRPRPRPLNFPRP | -0.434 |
| RRIRIRPPRLPRPRPRPLPCPRP | -0.661 |
| RRIRIRPPRLPRPRPRPLQEPRP | -0.0919 |
| RRIRIRPPRLPRPRPRPLQSPRP | -0.0353 |
| RRIRIRPPRLPRPRPRPLRGPRP | 0.694 |
| RRIRIRPPRLPRPRPRPLRHPRP | -0.172 |
| RRIRIRPPRLPRPRPRPLTFPRP | -0.173 |
| RRIRIRPPRLPRPRPRPLTGPRP | -0.0674 |
| RRIRIRPPRLPRPRPRPLVMPRP | -1.56 |
| RRIRIRPPRLPRPRPRPLVVPRP | -0.25 |
| RRIRIRPPRLPRPRPRPLWFPRP | -0.257 |
| RRIRIRPPRLPRPRPRPLYYPRP | -0.856 |
| RRIRIRPPRLPRPRPRPMAGPRP | 0.022 |
| RRIRIRPPRLPRPRPRPMCEPRP | -0.00819 |
| RRIRIRPPRLPRPRPRPMCFPRP | -0.343 |
| RRIRIRPPRLPRPRPRPMCLPRP | -0.425 |
| RRIRIRPPRLPRPRPRPMCQPRP | 0.0317 |
| RRIRIRPPRLPRPRPRPMDPPRP | -0.347 |
| RRIRIRPPRLPRPRPRPMFAPRP | -0.00719 |
| RRIRIRPPRLPRPRPRPMGFPRP | 0.0523 |
| RRIRIRPPRLPRPRPRPMHIPRP | -0.417 |
| RRIRIRPPRLPRPRPRPMHRPRP | -0.262 |
| RRIRIRPPRLPRPRPRPMHSPRP | -0.0586 |
